In paper PMC2933242:

Target: T1, ERRα (estrogen-related receptor alpha) (UniProt P11474)
T1 sequence: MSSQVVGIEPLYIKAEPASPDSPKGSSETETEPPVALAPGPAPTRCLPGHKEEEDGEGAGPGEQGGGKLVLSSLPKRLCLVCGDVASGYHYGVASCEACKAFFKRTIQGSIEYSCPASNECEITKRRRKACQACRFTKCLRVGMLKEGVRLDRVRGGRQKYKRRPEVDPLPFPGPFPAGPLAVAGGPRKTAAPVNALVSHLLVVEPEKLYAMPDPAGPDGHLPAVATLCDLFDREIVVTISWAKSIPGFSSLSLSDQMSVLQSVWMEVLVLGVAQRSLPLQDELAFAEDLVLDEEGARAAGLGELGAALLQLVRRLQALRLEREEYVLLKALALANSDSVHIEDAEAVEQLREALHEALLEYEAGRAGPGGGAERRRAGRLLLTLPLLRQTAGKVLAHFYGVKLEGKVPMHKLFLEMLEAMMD
Assay: competition
Conditions: 10-, 50-, EMSA with 15,000 cpm probe per reaction, buffer, salt, pH and temperature not given (as in ref 28)

Row | Sequence | binding signal (fold IC50 (A competitor / G competitor)) (vs 32P G probe, 100-fold excess of competitor) | binding signal (fold IC50 (reference)) (unlabeled G vs 32P G probe, 100-fold excess)
1 | GATCTAGCTCCTGCAGGTTCTCAAGGTTGTAGTCCACACCCTGCTGATC (double strand) [PPARA -54,642 A probe (with -54,645 T)] | 2.3 | 
2 | GATCTAGCTCCTGCAGGTTCTCAAGGTTGTAGCCCGCACCCTGCTGATC (double strand) [PPARA -54,642 G probe (with -54,645 C)] |  | 1
